Assay [1] concerns the target T1, human CD71 extracellular domain (CD71-ECD) (human, UniProt P02786 89-760).
T1 construct: also called hCD71; human CD71-ECD
In words: primary ELISA. Note: test concentration or dose not given here.

The target of assay [2] is T1, human CD71 extracellular domain …. In words: primary ELISA, RLU ratio to HSA.
Assay [3] deals with human CD71 on cells (SKBR3; SW620-rLuc-KRAS) (human, UniProt P02786 1-760). In words: cell-based or functional assay.
Chain of human CD71 on cells (SKBR3; SW620-rLuc-KRAS) (P02786 whole entry): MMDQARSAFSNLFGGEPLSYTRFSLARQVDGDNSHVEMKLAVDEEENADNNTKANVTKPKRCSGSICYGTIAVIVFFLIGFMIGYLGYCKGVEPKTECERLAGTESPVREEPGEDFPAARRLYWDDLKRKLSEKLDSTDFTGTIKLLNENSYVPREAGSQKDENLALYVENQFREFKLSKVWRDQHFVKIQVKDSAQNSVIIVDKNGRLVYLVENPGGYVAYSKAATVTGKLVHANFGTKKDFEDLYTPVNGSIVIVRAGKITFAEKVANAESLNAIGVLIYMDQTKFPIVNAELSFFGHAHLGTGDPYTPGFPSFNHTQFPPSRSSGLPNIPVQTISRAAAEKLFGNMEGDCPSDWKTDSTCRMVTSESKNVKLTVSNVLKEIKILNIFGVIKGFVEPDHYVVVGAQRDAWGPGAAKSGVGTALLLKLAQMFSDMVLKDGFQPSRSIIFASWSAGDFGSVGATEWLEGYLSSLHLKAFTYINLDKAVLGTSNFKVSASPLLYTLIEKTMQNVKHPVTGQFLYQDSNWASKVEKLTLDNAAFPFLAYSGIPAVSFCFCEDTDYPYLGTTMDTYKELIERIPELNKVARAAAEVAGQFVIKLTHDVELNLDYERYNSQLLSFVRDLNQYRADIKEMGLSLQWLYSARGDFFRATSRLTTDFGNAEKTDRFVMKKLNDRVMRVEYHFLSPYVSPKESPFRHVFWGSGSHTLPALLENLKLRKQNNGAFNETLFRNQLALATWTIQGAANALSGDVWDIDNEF

T1 sequence (P02786 89-760): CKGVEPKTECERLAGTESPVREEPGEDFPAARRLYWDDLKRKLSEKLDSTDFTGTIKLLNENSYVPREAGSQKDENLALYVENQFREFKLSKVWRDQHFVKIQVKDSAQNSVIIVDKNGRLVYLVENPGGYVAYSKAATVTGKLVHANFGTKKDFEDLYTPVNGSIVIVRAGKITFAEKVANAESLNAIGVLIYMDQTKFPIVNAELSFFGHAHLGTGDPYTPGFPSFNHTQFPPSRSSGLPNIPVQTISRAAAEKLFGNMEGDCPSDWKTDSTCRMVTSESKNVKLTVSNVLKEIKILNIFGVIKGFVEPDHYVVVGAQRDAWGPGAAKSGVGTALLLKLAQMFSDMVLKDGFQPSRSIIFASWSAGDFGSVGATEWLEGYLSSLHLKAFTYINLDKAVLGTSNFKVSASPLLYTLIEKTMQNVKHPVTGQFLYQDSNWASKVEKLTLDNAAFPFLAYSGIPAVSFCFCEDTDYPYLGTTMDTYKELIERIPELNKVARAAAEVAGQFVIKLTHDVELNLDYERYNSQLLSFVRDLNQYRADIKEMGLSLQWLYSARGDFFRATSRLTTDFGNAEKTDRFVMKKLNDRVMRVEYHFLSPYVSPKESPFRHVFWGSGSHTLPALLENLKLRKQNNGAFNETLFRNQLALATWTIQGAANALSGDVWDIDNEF

B1: CD71-binding FN3 domain SEQ ID NO: 253 (designed binder)
chain: MSLPAPKNLVVSRVTEDSARLSWTAPDAAFDSFDINYWENESGGEAIALFVPGSERSYDLTGLKPGTEYWVSIGGVKGGRFSEPLYARFTT
B1 showed an RLU in assay [1] of 3.53e+06 RLU. The “hCD71:HSA” value in assay [2] was 324.

B2: CD71-binding FN3 domain SEQ ID NO: 314 (designed binder)
chain: MGSLPAPKNLVVSRVTEDSARLSWTAPDAAFDSFEIGYFENLYLGEAIVLTVPGSERSYDLTGLKPGTEYWVQIGGVKGGNWSAPLSAIFTT
In assay [1], B2 had an RLU of 3.15e+06 RLU. The “hCD71:HSA” value in assay [2] amounted to 256.

B3: CD71-binding FN3 domain SEQ ID NO: 330 (designed binder)
chain: MSLPAPKNLVVSRVTEDSARLSWTAPDAAFDSFEIGYFENLYLGEAIVLTVPGSERSYDLTGLKPGTEYWVQIGGVKGGNWSAPLSAIVTT
For B3, in assay [1], the RLU was 2.54e+06 RLU. For the same molecule, the “hCD71:HSA” value in assay [2] worked out at 54.

B4: CD71-binding FN3 domain SEQ ID NO: 332 (designed binder)
chain: MSLPAPKNLVVSRVTEDSARLSWTAPDAAFDSFEIGYWEGPGGGEAIILVVPGSERSYDLTGLKPGTEYYVQIGGVKGGDWSTPLWATFTT
In turn, B4 registered an RLU in assay [1] of 1.7e+06 RLU. Also, the “hCD71:HSA” value in assay [2] was found to be 131.

B5: CD71-binding FN3 domain SEQ ID NO: 245 (designed binder)
chain: MSLPAPKNLVVSRVTEDSARLSWTAPDAAFDSFEISYWEHTFNGEAIILFVPGSERSYDLTGLKPGTEYYVTIGGVKGGAWSPPLWAHFTT
The molecule B5 had an RLU in assay [1] of 3.75e+06 RLU. In assay [2], the “hCD71:HSA” value turned out to be 377.

B6: CD71-binding FN3 domain SEQ ID NO: 267 (designed binder)
chain: MSLPAPKNLVVSRVTEDSARLSWTAPDAAFDSFEISYWEHTFNGEAIILFVPGSERSYDLTGLKPGTEYYVTIGGVKGGAWSPPLWAEFTT
In the case of B6, the RLU in assay [1] was determined as 3.12e+06 RLU. Moreover, the “hCD71:HSA” value in assay [2] is 92.

B7: CD71-binding FN3 domain SEQ ID NO: 303 (designed binder)
chain: MSLPAPKNLVVSRVTEDSARLSWTAPDAAFDSFWIEYWEGWKSGEAIVLTVPGSERSYDLTGLKPGTEYRVHIWGVKGGIVSWPLSAIFTT
B7 displayed an RLU in assay [1] of 1.86e+06 RLU. In addition, in assay [2], the “hCD71:HSA” value is 212.

B8: CD71-binding FN3 domain SEQ ID NO: 259 (designed binder)
chain: MSLPAPKNLVVSRVTEDSARLSWTAPDAAFDSFYIAYAEPRPDGEAILLEVPGSERSYDLTGLKPGTEYSVLIHGVKGGLLSSPLSATFTT
Consider B8, for which the RLU in assay [1] turned out to be 3.77e+06 RLU. Further, the “hCD71:HSA” value in assay [2] came to 300.

B9: CD71-binding FN3 domain SEQ ID NO: 261 (designed binder)
chain: MSLPAPKNLVVSRVTEDSARLSWTAPDAAFDSFYIAYAEPRPDGEAILLWVPGSERSYDLTGLKPGTEYSVLIHGVKGGLLSSPLHAYFTT
Regarding B9, the RLU in assay [1] was determined as 3.43e+06 RLU. The “hCD71:HSA” value in assay [2] is 535.

B10: CD71-binding FN3 domain SEQ ID NO: 240 (designed binder)
chain: MSLPAPKNLVVSRVTEDSARLSWTAPDAAFDSFHIWYFEKANEGEAIPLVVPGSERSYDLTGLKPGTEYDVDIGGVKGGAWSIPLGARFTT
In the case of B10, the RLU in assay [1] was determined as 3.72e+06 RLU. Besides, the “hCD71:HSA” value in assay [2] was 39.

B11: CD71-binding FN3 domain of SEQ ID NO: 347 (designed binder)
chain: MLPAPKNLVVSRVTEDSARLSWTAPDAAFDSFFIGYLEPQPPGEAIGLFVPGSERSYDLTGLKPGTEYNVTIQGVKGGFPSEPLKAAFTT
B11: the “CTG EC50 (CellTiter-Glo luminescent assay, SKBR3 cells, 72 h)” value (“CTG EC50” for short) in assay [3] is 53.4 nM.

B12: CD71-binding FN3 domain of SEQ ID NO: 445 (designed binder)
chain: MLPAPKNLVVSRVTEDSARLSWTAPDAAFDSFFIGYLEPQPPGEAIHLFVPGSERSYDLTGLKPGTEYNVTIQGVKGGFPSDPLVASFTT
With B12, in assay [3], the “CTG EC50” value was 0.4 nM.

B13: CD71-binding FN3 domain of SEQ ID NO: 479 (designed binder)
chain: MLPAPKNLVVSRVTEDSARLSWTAPDAAFDSFFIGYLEPQPPGEAINLWVPGSERSYDLTGLKPGTEYNVTIQGVKGGFPSTPLFAGFTT
For B13, the “CTG EC50” value in assay [3] was found to be 30.6 nM.

B14: CD71-binding FN3 domain of SEQ ID NO: 410 (designed binder)
chain: MLPAPKNLVVSRVTEDSARLSWTAPDAAFDSFFIGYLEPQPPGEAIALWVPGSERSYDLTGLKPGTEYNVTIQGVKGGFPSQPLHAHFTT
With B14, in assay [3], the “CTG EC50” value is 5.8 nM.

B15: CD71-binding FN3 domain SEQ ID NO: 273 (designed binder)
chain: MLPAPKNLVVSRVTEDSARLSWTAPDAAFDSFEISYWEHTFNGEAIILFVPGSERSYDLTGLKPGTEYYVTIGGVKGGAWSPPLWAEFTT
For the molecule B15, the RLU in assay [1] was 3.78e+06 RLU. Also, the “hCD71:HSA” value in assay [2] was 664.

B16: CD71-binding FN3 domain SEQ ID NO: 241 (designed binder)
chain: MSLPAPKNLVVSRVTEDSARLSWTAPDAAFDSFMIAYDEFIVWGEAVVLTVPGSERSYDLTGLKPGTEYLVEILGVKGGTISGPLSAIFTT
Molecule B16 yielded an RLU in assay [1] of 3.4e+06 RLU. In assay [2], the “hCD71:HSA” value is 178.

B17: CD71-binding FN3 domain SEQ ID NO: 290 (designed binder)
chain: MSLPAPKNLVVSRVTEDSARLSWTAPDAAFDSFFIGYLEPQPPGEAIHLYVPGSERSYDLTGLKPGTEYNVTIQGVKGGFPSEPLVATFTT
For the molecule B17, in assay [1], the RLU is 5.98e+06 RLU. Also, in assay [2], the “hCD71:HSA” value amounted to 138.

B18: CD71-binding FN3 domain SEQ ID NO: 258 (designed binder)
chain: MSLPAPKNLVVSRVTEDSARLSWTAPDAAFDSFFIGYLEPQPPGEAIVLGVPGSERSYDLTGLKPGTEYNVTIQGVKGGFPSDPLVASFTT
B18 came in with an RLU in assay [1] of 4.77e+06 RLU. In assay [2], the “hCD71:HSA” value turned out to be 212.

B19: CD71-binding FN3 domain SEQ ID NO: 266 (designed binder)
chain: MSLPAPKNLVVSRVTEDSARLSWTAPDAAFDSFFIGYLEPQPPGEAIYLLVPGSERSYDLTGLKPGTEYNVTIQGVKGGFPSLPLVATFTT
B19 registered an RLU in assay [1] of 5.41e+06 RLU. Besides, the “hCD71:HSA” value in assay [2] worked out at 150.

B20: CD71-binding FN3 domain SEQ ID NO: 234 (designed binder)
chain: MSLPAPKNLVVSRVTEDSARLSWTAPDAAFDSFFIGYLEPQPPGEAIALYVPGSERSYDLTGLKPGTEYNVTIQGVKGGFPSEPLVAHFTT
Turning to B20, in assay [1], the RLU came to 6.42e+06 RLU. The “hCD71:HSA” value in assay [2] was 683.

B21: CD71-binding FN3 domain SEQ ID NO: 281 (designed binder)
chain: MSLPAPKNLVVSRVTEDSARLSWTAPDAAFDSFFIGYLEPQPPGEAIALYVPGSERSYDLTGLKPGTEYNVTIQGVKGGFPSEPLIANFTT
B21 came in with an RLU in assay [1] of 6.37e+06 RLU. The “hCD71:HSA” value in assay [2] came to 380.

B22: CD71-binding FN3 domain SEQ ID NO: 262 (designed binder)
chain: MSLPAPKNLVVSRVTEDSARLSWTAPDAAFDSFFIGYLEPQPPGEVIHLFVPGSERSYDLTGLKPGTEYNVTIQGVKGGFPSDPLVASFTT
For the molecule B22, in assay [1], the RLU was 6.78e+06 RLU. In addition, the “hCD71:HSA” value in assay [2] was found to be 529.

B23: CD71-binding FN3 domain SEQ ID NO: 264 (designed binder)
chain: MSLPAPKNLVVSRVTEDSARLSWTAPDAAFDSFFIGYLEPQPPGEAIALYVPGSERSYDLTGLKPGTEYNVTIQGVKGGFPSEPLVVHFTT
In the case of B23, the RLU in assay [1] came to 5.77e+06 RLU. In addition, the “hCD71:HSA” value in assay [2] came to 508.

B24: CD71-binding FN3 domain SEQ ID NO: 295 (designed binder)
chain: MSLPAPKNLVVSRVTEDSARLSWTAPDAAFDSFFIGYLEPQPPGEAIDLYVPGSERSYDLTGLKPGTEYNVTIQGVKGGFPSEPLVATFTT
In assay [1], B24 gave an RLU of 6.2e+06 RLU. For the same molecule, the “hCD71:HSA” value in assay [2] was determined as 438.

B25: CD71-binding FN3 domain SEQ ID NO: 333 (designed binder)
chain: MSLPAPENLVVSRVTEDSARLSWTAPDAAFDSFFIGYLEPQPPGEAIALYVPGSERSYDLTGLKPGTEYNVTIQGVKGGFPSLPLVATFTT
Molecule B25 yielded an RLU in assay [1] of 5.32e+06 RLU. The “hCD71:HSA” value in assay [2] turned out to be 146.

B26: CD71-binding FN3 domain SEQ ID NO: 331 (designed binder)
chain: MSLPAPKNLVVSRVTEDSARLSWTAPDAAFDSFFIGYLEPQPPGEAIHLYVPGSERSYDLTGLKPGTEYNVTIQGVKVGFPSEPLIANFTT
In assay [1], B26 returned an RLU of 4.66e+06 RLU. Besides, the “hCD71:HSA” value in assay [2] is 524.

B27: CD71-binding FN3 domain SEQ ID NO: 294 (designed binder)
chain: MSLPAPKNLVVSRVTEDSARLSWTAPDAAFDSFFIGYLEPQPLGEAIHLFVPGSERSYDLTGLKPGTEYNVTIQGVKGGFPSEPLIASFTT
In assay [1], B27 registered an RLU of 6.48e+06 RLU. Besides, in assay [2], the “hCD71:HSA” value came out at 215.

B28: CD71-binding FN3 domain SEQ ID NO: 270 (designed binder)
chain: MSLPAPKNLVVSRVTEDSARLSWTAPDAAFDSFFIGYLEPQPPGEAIHLYVPGSERSYDLTGLKPGTEYNVTIQGVKGGFPSEPLIANSTT
B28: the RLU in assay [1] came out at 5.5e+06 RLU. Also, the “hCD71:HSA” value in assay [2] worked out at 65.

B29: CD71-binding FN3 domain SEQ ID NO: 293 (designed binder)
chain: MSLPAPKNLVVSRVTEDSARLSWTAPDAAFDSFFIGYLEPQPPGEAIDLYVPGSERSYDLTGLKPGTEYNVTIQGVKGGFPSHPLVATFTT
As for B29, the RLU in assay [1] is 6.23e+06 RLU. Also, the “hCD71:HSA” value in assay [2] is 561.

B30: CD71-binding FN3 domain SEQ ID NO: 243 (designed binder)
chain: MSLPAPKNLVVSRVTEDSARLSWTAPDAAFDSFFIGYLEPQPPGEAIHLYVPGSERSYDLTGLKPGTEYNVTIQGVKGGEWSAPLSAIFTT
In turn, B30 came in with an RLU in assay [1] of 2.78e+06 RLU. Further, the “hCD71:HSA” value in assay [2] came out at 355.

B31: CD71-binding FN3 domain SEQ ID NO: 265 (designed binder)
chain: MSLPAPKNLVVSRVTEDSARLSWTAPDAAFDSFFIGYLEPQPPGEAISLYVPGSERSYDLTGLKPGTEYNVTIQGVKGGFPSDPLVAHFTT
B31 yielded an RLU in assay [1] of 5.66e+06 RLU. Besides, the “hCD71:HSA” value in assay [2] amounted to 409.

B32: CD71-binding FN3 domain SEQ ID NO: 279 (designed binder)
chain: MSLPAPKNLVVSRVTEDSARLSWTAPDAAFDSFFIGYLEPQPPGEAIHLYVPGSERSYDLTGLKPGTEYNVTIQGVKGGNWSAPLSAIFTT
With B32, the RLU in assay [1] stood at 3.66e+06 RLU. The “hCD71:HSA” value in assay [2] came to 449.

B33: CD71-binding FN3 domain SEQ ID NO: 310 (designed binder)
chain: MSLPAPKNLVVSRVTEDSARLSWTAPDAAFDSFEIDYGEYSQAGEAIGLLVPGSERSYDLTGLKPGTEYAVWIGGVKGGFFSTPLEADFTT
With B33, the RLU in assay [1] was 2.22e+06 RLU. Also, the “hCD71:HSA” value in assay [2] is 77.

Values taken from patent publication US20260151494A1 (ARO BIOTHERAPEUTICS, published 2026).
